Paper PMC13280575, “The PER2:BRCA1:POU2F1(OCT-1) ternary complex represents a multi-component scaffold model for circadian gene regulation”

Molecular target: POU2F1 (OCT-1) POU DNA-binding domain, wild type (Homo sapiens, UniProt P14859 280-438)
Test: EMSA; dose-dependent, saturation at ~0.8 uM protein; EMSA: 20 mM HEPES pH 7.9, 2 mM MgCl2, 10% glycerol, 2 mM DTT, 36 ng poly(dI-dC), 20 min room temperature; 5% native gel, 0.5x TBE, 4 C
Settings: protein: recombinant; tags: GST fusion, thrombin-cleaved when indicated (state in EMSA not explicit); label: 5'-32P; blunt

Chain of POU2F1 (OCT-1) POU DNA-binding domain, wild type (P14859 280-438): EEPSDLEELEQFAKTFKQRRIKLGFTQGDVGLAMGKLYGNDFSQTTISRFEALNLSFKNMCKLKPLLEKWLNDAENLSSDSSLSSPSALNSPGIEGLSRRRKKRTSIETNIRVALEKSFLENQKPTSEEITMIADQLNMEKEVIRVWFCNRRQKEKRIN

B1: ESR1 promoter POU2F1 element probe (-56 to -42) (dsDNA)
DNA 1: GCTATGGCCTATGCATATGAAGCCTTTATT
DNA 2: AATAAAGGCTTCATATGCATAGGCCATAGC
B1: binds.
